The values that follow are results of earlier work, collected in patent publication US11097005B2, “Use of cadherin-11 antagonists to treat metabolic disorders and/or increase insulin sensitivity” (The Brigham and Women's Hospital, Inc., priority 2014, dated 2021).

The conditions of the series: ob/ob mice; IL-33 administration.

B1: IL-33: cytokine, ST2 ligand; administration to ob/ob mice cited from literature (protein, UniProt Q8BVZ5 1-266, looked up)
Interleukin-33: MRPRMKYSNSKISPAKFSSTAGEALVPPCKIRRSQQKTKEFCHVYCMRLRSGLTIRKETSYFRKEPTKRYSLKSGTKHEENFSAYPRDSRKRSLLGSIQAFAASVDTLSIQGTSLLTQSPASLSTYNDQSVSFVLENGCYVINVDDSGKDQEQDQVLLRYYESPCPASQSGDGVDGKKLMVNMSPIKDTDIWLHANDKDYSVELQRGDVSPPEQAFFVLHKKSSDFVSFECKNLPGTYIGVKDNQLALVEEKDESCNNIMFKLSKI
For the molecule B1, the “accumulation of M2-macrophages in adipose tissue” value is recorded as “improve” and the glucose tolerance entry is “improve”.
